Experiments:
[1] = biological target: human polyclonal IgG (Gammanorm) (human); assay: SPR (Biacore), remaining IgG binding capacity after 96-100 cycles in 0.5 M NaOH, ratio to Zvar1 reference
[2] = biological target: human polyclonal IgG (Gammanorm) (human); assay: SPR (Biacore), ligand on CM5 chip, 1 mg/ml human polyclonal IgG; remaining IgG binding signal after 96-100 10-min cycles in 0.5 M NaOH
[3] = biological target: human polyclonal IgG (Gammanorm) (human); assay: column dynamic binding capacity at 10% breakthrough, ligand on agarose beads (ligand content 9.7 mg/ml), Gammanorm 2 mg/ml, 6 min residence time
[4] = biological target: human polyclonal IgG (Gammanorm) (human); assay: column Qb10 after six 4 h cycles in 0.5 M NaOH relative to initial, ligand on agarose beads (ligand content 9.7 mg/ml)
[5] = biological target: human polyclonal IgG (Gammanorm) (human); assay: column Qb10 retention after six 4 h cycles in 0.5 M NaOH, ratio to Zvar4 reference
[6] = biological target: human polyclonal IgG (Gammanorm) (human); assay: column Qb10 after six 4 h cycles in 0.5 M NaOH, ligand on agarose beads (ligand content 9.7 mg/ml)
[7] = biological target: human polyclonal IgG (Gammanorm) (human); assay: column Qb10 after six 4 h cycles in 0.5 M NaOH, ligand on agarose beads (ligand content 10.8 mg/ml)
[8] = biological target: human polyclonal IgG (Gammanorm) (human); assay: column dynamic binding capacity at 10% breakthrough, ligand on agarose beads (ligand content 10.8 mg/ml), Gammanorm 2 mg/ml, 6 min residence time
[9] = biological target: human polyclonal IgG (Gammanorm) (human); assay: column Qb10 after six 4 h cycles in 0.5 M NaOH relative to initial, ligand on agarose beads (ligand content 10.8 mg/ml)

Row | Substance | Capacity relative to reference [1] | Capacity after 96-100 cycles [2] [%] | Initial IgG capacity Qb10 [3] [mg/mL] | Remaining IgG capacity after six 4 h cycles (%) [4] [%] | Capacity retention relative to ref. after 4 h cycles [5] | Remaining IgG capacity after six 4 h cycles [6] [mg/mL] | Remaining IgG capacity after six 4 h cycles [7] [mg/mL] | Initial IgG capacity Qb10 [8] [mg/mL] | Remaining IgG capacity after six 4 h cycles (%) [9] [%]
1 | Zvar(H18K, S33K, D37E, A42R, N43A, L44I, K50R, L51Y)1 (designed binder) | 1.04 | 48 | – | – | – | – | – | – | –
2 | Zvar(N11K, H18K, S33K, D37E, A42R, N43A, L44I, K50R, L51Y)4 (designed binder) | – | – | 56.3 | 92 | 1.42 | 52 | – | – | –
3 | Zvar(Q9A, N11K, H18K, D37E, A42R)4 (designed binder) | – | – | – | – | 1.21 | – | 52.5 | 56.9 | 92
